The results in this text go back to publication PMC6319605 (Nature microbiology, 2018).

The test concerns the target Ubiquitin (Ub-propargylamide activity-based probe) (UniProt P0CG48 1-76, C-terminal propargylamide (Ub-PA), covalently linked to ChlaDUB1). Briefly: crystal structure.

B1: Chlamydia trachomatis ChlaDUB1 (130-401) (enzyme)
chain: PVKTQEDLLPLVPEQVFVEMYEDMARRQTIEALVPAWDSDIIFKCLCYFHTLYPGLIPLETFPPATIFNFKQKIISILEDKKAVLRGEPIKGPLPICCSKENYRRHLQRTTLLPVFMWYHPTPKTLSDTMQTMKQLAIKGSVGASHWLLVIVDIQARRLVYFDSLYNYVMPPENMKKELQSFAQQLDQVYPAYDSKKFSVKIAAKEVIQRGSGSSCGAWCCQFLHWYLKDPLTDALNDLPVDSVERHENLASFVQACEAAVQDLPELSWPEA
modifications: covalently linked to one Ub molecule through the Ub-propargylamide probe (in the enzymatic S1 site)
As for B1, the binding result is reported as “binds”.
